# Numbering of substitutions follows the chain as printed.
# B1: IgG1-F1125 (antibody)
# heavy: QVQLQESGPGLVKPSETLSLTCAVSGHSISHDHAWSWVRQPPGEGLEWIGFISYSGITNYNPSLQGRVTISRDNSKNTLYLQMNSLRAEDTAVYYCARSLARTTAMDYWGEGTLVTVSSASTKGPSVFPLAPSSKSTSGGTAALGCLVKDYFPEPVTVSWNSGALTSGVHTFPAVLQSSGLYSLSSVVTVPSSSLGTQTYICNVNHKPSNTKVDKKVEPKSCDKTHTCPPCPAPELLGGPSVFLFPPKPKDTLYISRTPEVTCVVVDVSHEDPEVKFNWYVDGVEVHNAKTKPREEQYNSTYRVVSVLQVLHQDWLNGKEYKCKVSNKALPAPIEKTISKAKGQPREPQVYTLPPSRDELTKNQVSLTCLVKGFYPSDIAVEWESNGQPENNYKTTPPVLDSDGSFFLYSKLTVDKSRWQQGNVFSCSVMHEALHYHVTQKSLSLSP
# light: not shown
# notes: VH3-IgG1 with Fc substitutions (EU numbering) + L(WT)-CK
# B2: IgG1-F1058 (antibody)
# heavy: B1 heavy with Q309T, Q388E
# light: not shown
# notes: as for B1
# B3: IgG1-F1059 (antibody)
# heavy: B1 heavy with Q309T, Q388R
# light: not shown
# notes: as for B1
# B4: IgG1-F1060 (antibody)
# heavy: B1 heavy with Q309T, Q388S
# light: not shown
# notes: as for B1
# B5: IgG1-F1061 (antibody)
# heavy: B1 heavy with Q309T, P389E
# light: not shown
# notes: as for B1
# B6: IgG1-F1063 (antibody)
# heavy: B1 heavy with Q309T, P389S
# light: not shown
# notes: as for B1
# B7: IgG1-F1064 (antibody)
# heavy: B1 heavy with Q309T, V424E
# light: not shown
# notes: as for B1
# B8: IgG1-F1065 (antibody)
# heavy: B1 heavy with Q309T, V424R
# light: not shown
# notes: as for B1
# B9: IgG1-F1066 (antibody)
# heavy: B1 heavy with Q309T, V424S
# light: not shown
# notes: as for B1
# B10: IgG1-F1296 (antibody)
# heavy: B1 heavy with L237R, S241K, T258E, Q309T, H435D, V438Y, Q440R, S442E
# light: not shown
# notes: EU numbering; copies: 2 + 2
# B11: IgG1-F1298 (antibody)
# heavy: B1 heavy with L237R, S241K, T258E, Q309T, H435D, V438F, Q440R, S442E
# light: not shown
# notes: EU numbering; copies: 2 + 2
# B12: IgG1-F1300 (antibody)
# heavy: B1 heavy with L237R, S241K, T258E, Q309T, V438T, Q440K, S442D
# light: not shown
# notes: EU numbering; copies: 2 + 2
# B13: IgG1-F1302 (antibody)
# heavy: B1 heavy with L237R, S241K, T258E, Q309T, H435D, V438Y, Q440K, S442D
# light: not shown
# notes: EU numbering; copies: 2 + 2
# B14: IgG1-F1304 (antibody)
# heavy: B1 heavy with L237R, S241K, T258E, Q309T, H435D, V438F, Q440K, S442D
# light: not shown
# notes: EU numbering; copies: 2 + 2
# B15: IgG1-F1305 (antibody)
# heavy: B1 heavy with L237R, S241K, Q309T, H435D, Q440R, S442D
# light: not shown
# notes: EU numbering; copies: 2 + 2
# B16: IgG1-F1306 (antibody)
# heavy: B1 heavy with L237R, S241K, Q309T, H435D, Q440K, S442E
# light: not shown
# notes: EU numbering; copies: 2 + 2
# B17: IgG1-F1307 (antibody)
# heavy: B1 heavy with L237R, S241K, Q309T, V424A, S426A
# light: not shown
# notes: EU numbering; copies: 2 + 2
# B18: IgG1-F1308 (antibody)
# heavy: B1 heavy with L237R, S241K, Q309T, V424L, S426L
# light: not shown
# notes: EU numbering; copies: 2 + 2
# B19: IgG1-F1309 (antibody)
# heavy: B1 heavy with L237R, S241K, Q309T, Q440A, S442A
# light: not shown
# notes: EU numbering; copies: 2 + 2
# B20: IgG1-F1310 (antibody)
# heavy: B1 heavy with L237R, S241K, Q309T, Q440L, S442L
# light: not shown
# notes: EU numbering; copies: 2 + 2
# B21: IgG1-F1311 (antibody)
# heavy: B1 heavy with L237R, S241K, Q309T, V424A, S426A, H435D
# light: not shown
# notes: EU numbering; copies: 2 + 2
# B22: IgG1-F1312 (antibody)
# heavy: B1 heavy with L237R, S241K, Q309T, V424L, S426L, H435D
# light: not shown
# notes: EU numbering; copies: 2 + 2
# B23: IgG1-F1313 (antibody)
# heavy: B1 heavy with L237R, S241K, Q309T, H435D, Q440A, S442A
# light: not shown
# notes: EU numbering; copies: 2 + 2
# B24: IgG1-F1314 (antibody)
# heavy: B1 heavy with L237R, S241K, Q309T, H435D, Q440L, S442L
# light: not shown
# notes: EU numbering; copies: 2 + 2
# B25: IgG1-F1315 (antibody)
# heavy: B1 heavy with G239K, S241K, Q309T
# light: not shown
# notes: EU numbering; copies: 2 + 2
# B26: IgG1-F1316 (antibody)
# heavy: B1 heavy with G239R, S241K, Q309T
# light: not shown
# notes: EU numbering; copies: 2 + 2
# B27: IgG1-F1317 (antibody)
# heavy: B1 heavy with S241K, Q309T, P331K
# light: not shown
# notes: EU numbering; copies: 2 + 2
# B28: IgG1-F1318 (antibody)
# heavy: B1 heavy with S241K, Q309T, P331R
# light: not shown
# notes: EU numbering; copies: 2 + 2
# B29: IgG1-F1319 (antibody)
# heavy: B1 heavy with Q309T, L330Y, V438Y
# light: not shown
# notes: EU numbering; copies: 2 + 2
# B30: IgG1-F1320 (antibody)
# heavy: B1 heavy with L237R, S241K, S256T, Q309T, Q440R, S442D
# light: not shown
# notes: EU numbering; copies: 2 + 2
# B31: IgG1-F1321 (antibody)
# heavy: B1 heavy with L237R, S241K, S256T, Q309T, Q440K, S442E
# light: not shown
# notes: EU numbering; copies: 2 + 2
# B32: IgG1-F1323 (antibody)
# heavy: B1 heavy with L237R, S241K, S256T, Q309T, H435D, Q440K, S442E
# light: not shown
# notes: EU numbering; copies: 2 + 2
# B33: IgG1-F1324 (antibody)
# heavy: B1 heavy with L236A, L237A, Q309T
# light: not shown
# notes: EU numbering; copies: 2 + 2
# B34: IgG1-F1325 (antibody)
# heavy: B1 heavy with L236A, L237A, N299A, Q309T
# light: not shown
# notes: EU numbering; copies: 2 + 2
# B35: IgG1-F1328 (antibody)
# heavy: B1 heavy with L237R, G238R, S241K, Q309T, Q440R, S442E
# light: not shown
# notes: EU numbering; copies: 2 + 2
# B36: IgG1-F1329 (antibody)
# heavy: B1 heavy with L237R, G238R, S241K, S256T, Q309T, Q440R, S442E
# light: not shown
# notes: EU numbering; copies: 2 + 2
# B37: IgG1-F1330 (antibody)
# heavy: B1 heavy with L237R, G238R, S241K, T258E, Q309T, Q440R, S442E
# light: not shown
# notes: EU numbering; copies: 2 + 2
# B38: IgG1-F1331 (antibody)
# heavy: B1 heavy with L237R, G238R, S241K, S256T, T258E, Q309T, Q440R, S442E
# light: not shown
# notes: EU numbering; copies: 2 + 2
# B39: IgG1-F1333 (antibody)
# heavy: B1 heavy with L237R, G238R, S241K, Q309T
# light: not shown
# notes: EU numbering; copies: 2 + 2
# B40: IgG1-F1334 (antibody)
# heavy: B1 heavy with L237R, G238R, S241K, Q309T, Q440K, S442D
# light: not shown
# notes: EU numbering; copies: 2 + 2
# B41: IgG1-F1335 (antibody)
# heavy: B1 heavy with L237R, G238R, S241K, S256T, Q309T, Q440K, S442D
# light: not shown
# notes: EU numbering; copies: 2 + 2
# B42: IgG1-F1336 (antibody)
# heavy: B1 heavy with L237R, G238R, S241K, T258E, Q309T, Q440K, S442D
# light: not shown
# notes: EU numbering; copies: 2 + 2
# B43: IgG1-F1337 (antibody)
# heavy: B1 heavy with L237R, S241K, T258E, Q309T, Q440K, S442E
# light: not shown
# notes: EU numbering; copies: 2 + 2
# B44: IgG1-F1338 (antibody)
# heavy: B1 heavy with L237R, S241K, T258E, Q309T, H435D, Q440K, S442E
# light: not shown
# notes: EU numbering; copies: 2 + 2
# B45: IgG1-F1339 (antibody)
# heavy: B1 heavy with L237R, S241K, S256T, T258E, Q309T, H435D, V438T, Q440K, S442E
# light: not shown
# notes: EU numbering; copies: 2 + 2
# B46: IgG1-F1340 (antibody)
# heavy: B1 heavy with L237R, S241K, S256T, T258E, Q309T, Q440K, S442E
# light: not shown
# notes: EU numbering; copies: 2 + 2
# B47: IgG1-F1341 (antibody)
# heavy: B1 heavy with L237R, S241K, S256T, Q309T, V438T, Q440K, S442E
# light: not shown
# notes: EU numbering; copies: 2 + 2
# B48: IgG1-F1342 (antibody)
# heavy: B1 heavy with L237R, S241K, T258E, Q309T, V438T, Q440K, S442E
# light: not shown
# notes: EU numbering; copies: 2 + 2
# B49: IgG1-F1343 (antibody)
# heavy: B1 heavy with L237R, S241K, S256T, T258E, Q309T, V438T, Q440K, S442E
# light: not shown
# notes: EU numbering; copies: 2 + 2
# B50: IgG1-F1344 (antibody)
# heavy: B1 heavy with L237R, S241K, Q309T, V438T, Q440K, S442E
# light: not shown
# notes: EU numbering; copies: 2 + 2
# B51: IgG1-F1345 (antibody)
# heavy: B1 heavy with L237R, G238R, S241K, Q309T, Q440K, S442E
# light: not shown
# notes: EU numbering; copies: 2 + 2
# B52: IgG1-F1346 (antibody)
# heavy: B1 heavy with L237R, G238R, S241K, S256T, Q309T, Q440K, S442E
# light: not shown
# notes: EU numbering; copies: 2 + 2
# B53: IgG1-F1347 (antibody)
# heavy: B1 heavy with L237R, G238R, S241K, T258E, Q309T, Q440K, S442E
# light: not shown
# notes: EU numbering; copies: 2 + 2
# B54: IgG1-F1348 (antibody)
# heavy: B1 heavy with L237R, G238R, S241K, S256T, T258E, Q309T, Q440K, S442E
# light: not shown
# notes: EU numbering; copies: 2 + 2
# B55: IgG1-F1349 (antibody)
# heavy: B1 heavy with L237R, S241K, Q309T, V438T, Q440R, S442E
# light: not shown
# notes: EU numbering; copies: 2 + 2
# B56: IgG1-F1350 (antibody)
# heavy: B1 heavy with L237R, S241K, Q309T, V438F, Q440K, S442E
# light: not shown
# notes: EU numbering; copies: 2 + 2
# B57: IgG1-F1351 (antibody)
# heavy: B1 heavy with L237R, S241K, Q309T, V438F, Q440R, S442E
# light: not shown
# notes: EU numbering; copies: 2 + 2
# B58: IgG1-F1352 (antibody)
# heavy: B1 heavy with L237R, S241K, Q309T, H435D, V438T, Q440K, S442E
# light: not shown
# notes: EU numbering; copies: 2 + 2
# Molecular target: T1, soluble human FcRn (heterodimer of FcRn alpha chain and beta2-microglobulin) (human, UniProt P55899 24-297; P61769 21-119)
# T1 construct: Expressed in HEK293H and purified on IgG Sepharose; also called hFcRn
# T1 sequence (P55899 24-297 limits assumed, chain 1 of 2): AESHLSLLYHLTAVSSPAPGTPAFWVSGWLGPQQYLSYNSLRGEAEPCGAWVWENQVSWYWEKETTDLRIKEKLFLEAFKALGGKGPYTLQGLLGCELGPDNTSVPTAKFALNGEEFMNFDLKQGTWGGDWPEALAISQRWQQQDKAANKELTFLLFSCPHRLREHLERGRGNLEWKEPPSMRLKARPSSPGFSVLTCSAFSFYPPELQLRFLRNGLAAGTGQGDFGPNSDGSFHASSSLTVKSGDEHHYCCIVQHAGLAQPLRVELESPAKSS
# T1 sequence (P61769 21-119 limits assumed, chain 2 of 2): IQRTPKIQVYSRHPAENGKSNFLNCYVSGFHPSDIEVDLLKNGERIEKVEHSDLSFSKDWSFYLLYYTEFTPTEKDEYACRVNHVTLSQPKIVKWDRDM
# Experiment: SPR Biacore T100, antibody captured via protein L, hFcRn analyte, pH 7.0, 25 C;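 further: KD derived from kinetic ka and kd fits of sensorgrams, CM4 sensor chip, sodium phosphate NaCl Tween20 running buffer, buffer-only injection used as reference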
# Method: An appropriate amount of protein L (ACTIGEN) was immobilized onto Sensor chip CM4 (GE Healthcare) by the amino coupling method, and the chip was allowed to capture an antibody of interest. Then, diluted FcRn solutions and running buffer (as a reference solution) were injected to allow human FcRn to interact with the antibody captured on the sensor chip. The running buffer used comprised 50 mmol/l sodium phosphate, 150 mmol/l NaCl, and 0.05% (w/v) Tween20 (pH 7.0). FcRn was diluted using each buffer. The chip was regenerated using 10 mmol/l glycine-HCl (pH 1.5). Assays were carried out exclusively at 25 degrees C. The association rate constant ka (1/Ms) and dissociation rate constant kd (1/s), both of which are kinetic parameters, were calculated based on the sensorgrams obtained in the assays, and KD (M) of each antibody for human FcRn was determined from these values. Each parameter was calculated using Biacore T100 Evaluation Software (GE Healthcare).
row,Binder,Kd
1,B1,52 nM
2,B2,130 nM
3,B3,140 nM
4,B4,140 nM
5,B5,120 nM
6,B6,140 nM
7,B7,130 nM
8,B8,140 nM
9,B9,140 nM

# Molecular target: T2, soluble human FcRn (human, UniProt P55899 24-297; P61769 21-119)
# T2 construct: Heterodimer of FcRn alpha chain and beta2-microglobulin; also called hFcRn
# T2 sequence (P55899 24-297 limits assumed, chain 1 of 2): as the sequence (P55899 24-297 limits assumed, chain 1 of 2) above
# T2 sequence (P61769 21-119 limits assumed, chain 2 of 2): as the sequence (P61769 21-119 limits assumed, chain 2 of 2) above
# Experiment: SPR (Biacore T100), antibody captured by protein L, hFcRn as analyte, pH 7.0, 25 C;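 further: KD calculated from fitted association and dissociation rate constants of the sensorgrams, protein L amine-coupled to the sensor chip, sodium phosphate running buffer with NaCl and Tween20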
row,Binder,Kd
1,B10,230 nM
2,B11,150 nM
3,B12,160 nM
4,B13,220 nM
5,B14,120 nM
6,B15,200 nM
7,B16,190 nM
8,B17,140 nM
9,B18,210 nM
10,B19,130 nM
11,B20,230 nM
12,B21,170 nM
13,B22,180 nM
14,B23,180 nM
15,B24,230 nM
16,B25,150 nM
17,B26,150 nM
18,B27,140 nM
19,B28,140 nM
20,B29,270 nM
21,B30,120 nM
22,B31,100 nM
23,B32,150 nM
24,B33,130 nM
25,B34,210 nM

row,Binder,Kd
1,B35,150 nM
2,B36,130 nM
3,B37,100 nM
4,B38,77 nM
5,B39,120 nM
6,B40,100 nM
7,B41,88 nM
8,B42,72 nM
9,B43,74 nM
10,B44,100 nM
11,B45,250 nM
12,B46,56 nM
13,B47,320 nM
14,B48,250 nM
15,B49,200 nM
16,B50,400 nM
17,B51,100 nM
18,B52,86 nM
19,B53,71 nM
20,B54,55 nM
21,B55,340 nM
22,B56,120 nM
23,B57,160 nM
24,B58,390 nM

# — patent publication US20140363428A1 (Chugai, published 2014)
